# Data as given in US20180037892, “EPCAM APTAMERS AND CONJUGATES THEREOF” (Deakin University, published 2018).
# T1: EpCAM (UniProt P16422 P16422:24-314)
# T1 sequence: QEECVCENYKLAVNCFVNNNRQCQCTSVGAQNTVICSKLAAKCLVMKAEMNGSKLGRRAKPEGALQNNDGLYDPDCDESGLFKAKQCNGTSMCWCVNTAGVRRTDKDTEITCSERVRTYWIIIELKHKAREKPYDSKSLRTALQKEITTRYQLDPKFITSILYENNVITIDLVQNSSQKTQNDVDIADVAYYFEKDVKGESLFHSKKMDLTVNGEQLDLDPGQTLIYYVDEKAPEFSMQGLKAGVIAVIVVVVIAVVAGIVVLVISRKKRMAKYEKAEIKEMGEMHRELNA
# Key:
# [1] = molecular target: T1, EpCAM; experiment: flow; HEY cells, 5 mM MgCl2 folding, 37 C; details: tags: native EpCAM on HT29 or HEY cells; label: 5' TYE665; two hairpins
# Description: (§1) In order to determine the binding affinity (equilibrium dissociation constant KD) of the aptamers. Binding assays were conducted to measure the binding to native EpCAM protein expressed on the cell surface. The aptamers were incubated with the cells at concentrations ranging from 0 nM to 400 nM. These were subsequently analysed by flow cytometry. Aptamers were thawed from storage (−20° C.) prior to use. These were then diluted via serial dilutions with phosphate buffered saline (PBS) in order to achieve the desired concentrations. PBS was supplemented with a MgCl₂ concentration appropriate for the aptamer (1 mM for anti-TfR aptamers; 5 mM for conjugate aptamers). Aptamers were then folded into their 3D structures using a thermocycler (85° C. for 5 minutes, slow cooling to 22° C. over 10 minutes and 37° C. for 15 minutes).
# (§2) The binding affinities of aptamers Bi1, Bi2 and Bi3 were determined semi-quantitatively via flow cytometry, using bEnd.3 cells to assess reactivity with TfR, HEY cells to determine EpCAM specificity and the MOLT4 cell line as a negative control. Three independent binding assays were performed for these aptamer against all three cell lines (bEnd.3, HEY and MOLT4).
# [2] = molecular target: T2, Transferrin receptor (TfR) (Mus musculus, UniProt Q62351 Q62351:1-763); experiment: flow; bEnd.3 cells, 5 mM MgCl2 folding, 37 C; details: tags: native TfR on bEnd.3 mouse cerebral endothelial cells; chain copies: 2; label: 5' TYE665; two hairpins
# Description: as §1, §2
# [3] = molecular target: T2, Transferrin receptor (TfR); experiment: flow; bEnd.3 cells, 5 mM MgCl2 folding, 37 C; text gives 305.5; details: tags: native TfR on bEnd.3 mouse cerebral endothelial cells; chain copies: 2; label: 5' TYE665; two hairpins
# Description: as §1, §2
# [4] = molecular target: T2, Transferrin receptor (TfR); experiment: flow; bEnd.3 cells, 5 mM MgCl2 folding, 37 C; not internalised; details: tags: native TfR on bEnd.3 mouse cerebral endothelial cells; chain copies: 2; label: 5' TYE665; two hairpins
# Description: as §1, §2
# [5] = molecular target: T1, EpCAM; experiment: flow; HEY cells, scrambled EpCAM loop, 5 mM MgCl2 folding, 37 C; details: tags: native EpCAM on HT29 or HEY cells; label: 5' TYE665; two hairpins
# Description: as §1, §2
# [6] = molecular target: T2, Transferrin receptor (TfR); experiment: flow; bEnd.3 cells, 1 mM MgCl2 folding, 37 C; text gives 365.6; details: tags: native TfR on bEnd.3 mouse cerebral endothelial cells; chain copies: 2; label: 5' TYE665; hairpin
# [7] = molecular target: T2, Transferrin receptor (TfR); experiment: flow; bEnd.3 cells, 1 mM MgCl2 folding, 37 C; details: tags: native TfR on bEnd.3 mouse cerebral endothelial cells; chain copies: 2; label: 5' TYE665; hairpin
# [8] = molecular target: T1, EpCAM; experiment: flow; HT29 cells, 37 C; no binding to EpCAM-negative HEK293T and K562; details: tags: native EpCAM on HT29 or HEY cells; label: 5' TYE665; hairpin
# Description: (§3) The equilibrium dissociation constant (KD) of each DNA EpCAM aptamer (Ep7, Ep8 and Ep9) was determined by measuring its binding to native EpCAM protein expressed on the cell surface using flow cytometry. HT29, HEY and HEK293T (5×10⁵) cells were first incubated with blocking buffer (PBS containing 10% FCS, 1 mg/mL tRNA, 1 mg/mL BSA) for 30 minutes followed by a single wash with binding buffer (PBS containing 10% FCS, 1 mg/mL tRNA, 1 mg/mL BSA) prior to incubation with serial dilutions of concentrations of the respective TYE665-labelled aptamers (0 to 200 nM) in binding buffer for 30 min at 37° C. The cells were washed three times with PBS and resuspended in PBS prior to flow cytometric analysis. The fluorescent intensity was determined using a FACS Canto II flow cytometer (Becton Dickinson), counting 10,000 events for each sample. The mean fluorescent intensity of each concentration was subtracted from that of the auto fluorescent control and the KD for each aptamer was calculated from the normalised values for fluorescent intensity.
# [9] = molecular target: T1, EpCAM; experiment: flow; HEY cells, 37 C; details: tags: native EpCAM on HT29 or HEY cells, label: 5' TYE665, hairpin
# Description: as §3
# [10] = molecular target: T1, EpCAM; experiment: flow; HEY cells, 37 C; not internalised; details: tags: native EpCAM on HT29 or HEY cells; label: 5' TYE665; hairpin
# T2 sequence (Q62351 whole entry, one chain of several): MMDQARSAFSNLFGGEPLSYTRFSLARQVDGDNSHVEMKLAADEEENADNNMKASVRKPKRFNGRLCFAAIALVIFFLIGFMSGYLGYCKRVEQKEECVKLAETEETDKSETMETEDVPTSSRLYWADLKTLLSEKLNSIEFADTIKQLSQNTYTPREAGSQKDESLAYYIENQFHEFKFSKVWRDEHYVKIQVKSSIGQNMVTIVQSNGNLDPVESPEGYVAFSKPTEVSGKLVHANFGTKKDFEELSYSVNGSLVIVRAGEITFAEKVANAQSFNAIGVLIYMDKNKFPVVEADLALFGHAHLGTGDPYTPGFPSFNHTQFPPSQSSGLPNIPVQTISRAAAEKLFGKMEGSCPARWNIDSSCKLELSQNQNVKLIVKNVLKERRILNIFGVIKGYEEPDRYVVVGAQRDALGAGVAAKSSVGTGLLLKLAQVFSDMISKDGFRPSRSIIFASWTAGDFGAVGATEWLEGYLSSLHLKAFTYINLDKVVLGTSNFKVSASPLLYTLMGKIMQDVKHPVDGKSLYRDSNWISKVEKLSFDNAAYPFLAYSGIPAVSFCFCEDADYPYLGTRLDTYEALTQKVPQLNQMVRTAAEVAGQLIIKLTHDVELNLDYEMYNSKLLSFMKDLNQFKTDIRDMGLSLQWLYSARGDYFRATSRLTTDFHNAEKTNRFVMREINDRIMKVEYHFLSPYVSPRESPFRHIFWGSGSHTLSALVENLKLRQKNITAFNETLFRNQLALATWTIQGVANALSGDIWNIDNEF
binder,measurement,setting,value
"GCGCGGTACCGCGCTAACGGAGGTTGCGTCCGT (ssDNA, 3' inverted dT) [Bi3 (TEPP, TfR3 loop + Ep7 loop conjugate)]",Kd,[1],219 nM
same,Kd,[2],342 nM
"GCGCGGGCCCGCGCTAACGGAGGTTGCGTCCGT (ssDNA, 3' inverted dT) [Bi2 (TfR2 loop + Ep7 loop conjugate)]",Kd,[1],205 nM
same,Kd,[3],305 nM
"GCGCGTGCACGCGCTAACGGATTCCTTTTCCGT (ssDNA, 3' inverted dT) [Bi1 (TENN conjugate, TfR1 loop + scrambled Ep7 loop)]",Kd,[4],1690 nM
same,Kd,[5],921 nM
"GCGTGGTACCACGC (ssDNA, 3' inverted dT) [TfR3]",Kd,[6],366 nM
"GCGTGGGCCCACGC (ssDNA, 3' inverted dT) [TfR2]",Kd,[7],525 nM
"GCGTGTGCACACGC (ssDNA, 3' inverted dT) [TfR1]",Kd,[7],5760 nM
"GGGGTTGGCCCCT (ssDNA, 3' inverted dT [13 (3' inverted dT)]) [Ep9]",Kd,[8],31.8 nM
same,Kd,[9],266 nM
"CGCGCGCCGCAGGTTGCGTGCGGCGCGCGT (ssDNA, 3' inverted dT [30 (3' inverted dT)]) [Ex Ep7 (extended Ep7)]",Kd,[9]; 10 bp stem,63.7 nM
"CGCGCGCCGCATTCCTTTTGCGGCGCGCGT (ssDNA, 3' inverted dT [30 (3' inverted dT)]) [Scr Ex Ep7 (scrambled extended Ep7)]",Kd,[10],521 nM
